Experimental data published in the nanobody polyreactivity screen of Harvey et al. (2022).

Test: yeast display, Sf9 membrane polyspecificity reagent, FACS + sequencing; frameworks hold sequencing errors
Procedure, shortened: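 In a synthetic yeast display library (Saccharomyces cerevisiae BJ5465), nanobody expression was induced with galactose for 36–48 hours. FACS gates were set low and high (top ~1%) using anti-HA fluorescence for expression and streptavidin fluorescence for binding of the Sf9 membrane reagent. Each polyreactivity label is drawn from the gate of origin.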

| Sequence | polyreactivity (PSR sort gate) |
| --- | --- |
| QVQLVESGGGLVQAGGSLRLSCAASGRTFPAYAMGWYRQAPGKERELVASIDLSGGSTSYADSVKGRFTISRDNAKNTVYLQMNSLKPEDTAVYYCAKKGRWSSASSGYYYWGQGTQVTVSS | low polyreactivity |
| QVQLVESGGGLVQAGGSLRLSCAASGRIVKRNAMGWYRHAPGKERELVAAISYSGGSTYYADSVKGRFTISRDNAKNTVYLEMMSLKPEDTAVYYCAVDRYPTGITKYDYWGQGTQVTVSS | high polyreactivity |
| QVQLVESGGGLVQAGGSLRLSCAASGSIFRVYMGWYRQAPGKERELVATIRWSSGSTYYADSVKGRFTISRDNAKNTVYLQMNSLKPEDTAVYYCAVKGPYYDDYDYWGQGTQVTVSS | low polyreactivity |
| QVQLVESCGGLVQAGGSLRLSCAASGRNFYFNAMGWYRKAPGKERELVARISTGGITNYADSVKGRFTISRDNAKITVYLQMNSLKPEDTAVYYCAADYRRTWRYNYCGQGTQVTVSS | high polyreactivity |
| QVQLVESGGGLVQAGGSLRLSCAASGGIFDGYAMGWYRQAPGKERELVAAINYSVDRTYYADSVKGRFTISRDNAKNTVYLQMNSLKPVDTAVYYCATVPRYVRFGYGYWGQGTQVTVSS | high polyreactivity |
| QVQLVESGGGLVQAGGSLRLSCAASGRIFRVYAMGWYRQAPGKERELVAVISARGGNTYYADSVKGRFTISRDNAKNTVYLQMNSMKPEDTAVYYCAARGRMDYWGQGTQVTVSS | high polyreactivity |
| QVQLVESGGGLVQAGGSLRLSCAASGRIFRSNGMGWYRQAPGKERELVAAITYRGGNTYYADSVKGRFTISRDNAKNTVYFQMNSLKPEDTAVYYCANQGVRRHYGYDYWGQGTQVTVSS | high polyreactivity |
| QVQLVESGGGLVQAGGSLRLSCAASGFIFGYNAMGWYRQAPGKERELVAAITRSGGRTYYADSVKGRFTISRDNAKNTVYLQMNSLKPEDTSVYYCAASRFATYPRWYDYWGQGTQVTVSS | low polyreactivity |
| QVQLVESGGGLVQAGGSLRLSCAASGSTSGKYGMGWYRQAPGKVRELVAGITKGGGGTYYADSVKGRFTISRDNAKNTVYLQMHSLKPEDTAVYYCAKYYGSGYYIYDYWGQGTQVTVSS | low polyreactivity |
| QVQHVESAGGLVQEGGSLRLSCAASGSTSVKYPMGWYRQAPGKERELVAAIRKRGDSTYYADSVKGRFTISRDNAKNTVYLQMNSLKPEDTAVYYCAAQYLRGRGYWGQGTQVTVSS | low polyreactivity |
| QVQLVESGGGLVQAGGSLRLSCAASGSTFQWNAMGWYRQAPGKERELVAAISKSGGRTYYADSVKGRFTISRDFAKNTVYLQRNSLKPDDTAVYYCNALGSLDGRYGYWGQGTQVTVSS | high polyreactivity |
| QVQHVESGGGLVQGGGSLRLSCAASGSTFYAYAKGWYRQARGKERELVAVITSSGSTYYADSVKGRFTISRDNAKNTDYLQMNSLKAEDTAVYYCAAKRLSQSRRTQYRTRYQPMYYWGQGTQVTVSS | high polyreactivity |
| QVQLVESGGGLVQAGGSLRLSCAASGRIFLGNVMGWYRQAPGKERELVAAISSGGSTNYADSVKGRFTISRDNAKNTVYLQMNSLKPEDTAVYYCAAYFVRDWKLYYYWGQGTQVTVSS | low polyreactivity |
| QVQLVESGGGLVQAGGSLRLSCAASGSIFTDNSMGWYRQAPGKERELVAAIDSVGSTYYADSVKGRFTISRDNAKNTVYLQMNSLKPEDTAVYYCAADLYFPYESYYWGQGTQVTVSS | low polyreactivity |
| QVQLVESGGGLVQAGGSLRLSCAASGNTFHSNAMGWYRQAPGKERELVAAITPSDGDTYYADSVKGRFTISRDNAKNTVYLQMNSLKPEDTSVYYCAAEDDPGEYEYWGQGTQVTVSS | low polyreactivity |
| QVQLVESGGGLVQAGGSLRLSCAASGSTFKRYAMGWYRQAPAKERELVASISSGGSTNYADSVKGRFTISRDNAKNTVYLQMNSLKPEDTAVYYCNAVYYCYKGDYWGQGTQVTVSS | high polyreactivity |
| QVQLVESGGGLVQAGGSLRLSCAASGSIFVPYAMGWYRQAPGKERELVAAINSGGGTDYADSVKGRFTISRDNAKNTVYLQMNSLKPEDTAVYYCAKSRVAYRGWDHKYYIYDYWGQGTQVTVSS | low polyreactivity |
| QVQLVESGGGLVQAGGSLRLSCAATGFFFGPYVMGWYRQATGKERELVAVITWTGGSTSYADSVKGRFTISRDNAKNTVYLQMNSLKREDTAVYYCAARTHQYRSRSYYYWGQGTQVTVSS | high polyreactivity |
| QVQLVESGGGLVQAGGRLRLSCAASGLTFTYYAMGWYRQAPGKERELVATISWSGGTTYADSVKGRFTISRDNAKNTVYLQMNSLKPEDTAVYYCAADHPLYRRYDYWGQGTQVTVSS | high polyreactivity |
| QVQLVESGGGLVQAGGSLRLSCAASGRTFSGYAMGWYRQAPGKERELVAAIDRGDGTNYADSVKGRFTISRDNAKNTVYLQMNSLKPEDTAVYYCAADDYWTPFGYWGQGTQVTVSS | low polyreactivity |
| QVQLVESGGGLVQAGGSLRLSCAASGSTFSYNAMGWYRQAPGKERELVAAISRGDVSTYYADSVKGRFTISRDNAKNTVYLQMNSLKPEDTAVYYCADYWYGSQYKWRYDYWGQGTQVTVSS | low polyreactivity |
